The record followed here is PMC10348809, “CsMYB15 positively regulates Cs4CL2-mediated lignin biosynthesis during juice sac granulation in navel orange”.

For data set [1], the target named is T1, MBP-CsMYB15 (Citrus sinensis Osbeck ('Lane Late' …, UniProt A0A7G7YA61 1-267)).
T1 sequence: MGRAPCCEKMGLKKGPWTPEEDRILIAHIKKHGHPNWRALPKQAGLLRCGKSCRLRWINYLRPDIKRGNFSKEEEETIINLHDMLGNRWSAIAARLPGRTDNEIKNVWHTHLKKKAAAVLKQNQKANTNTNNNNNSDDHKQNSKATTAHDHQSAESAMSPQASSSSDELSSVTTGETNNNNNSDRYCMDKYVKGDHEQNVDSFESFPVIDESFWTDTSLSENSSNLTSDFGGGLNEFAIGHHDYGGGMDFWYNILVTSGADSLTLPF
The data set can be described thus: EMSA; not stated (EMSA as in Shi et al., 2020 with minor modifications). As to conditions: protein: recombinant; tags: MBP; label: 5' FAM on S18; blunt. On the technique in general: In EMSA bound probe runs differently from free probe, usually more slowly.

The target in data set [2] is T1, MBP-CsMYB15. As to the kind of experiment: competition; dose-dependent competition against FAM probe N1; not stated (EMSA as in Shi et al., 2020 with minor modifications). As to conditions: protein: recombinant; tags: MBP; blunt.

B1: proCs4CL2 probe (dsDNA)
DNA 1: GCAAAAATAACTCACCATCCCCTTTGCTTCCC
DNA 2: GGGAAGCAAAGGGGATGGTGAGTTATTTTTGC
Take B1: in the data set with MBP-CsMYB15 [1], the binding result was “binds”.

B2: proCs4CL2 unlabeled competitor (dsDNA)
DNA 1: GCAAAAATAACTCACCATCCCCTTTGCTTCCC
DNA 2: GGGAAGCAAAGGGGATGGTGAGTTATTTTTGC
Take B2: the binding result with MBP-CsMYB15 [2] is “binds”.
